Reference: PMC5118791, “Beyond Antibodies: Development of a Novel Protein Scaffold Based on Human Chaperonin 10” (Scientific Reports, 2016)
Blank lines part the entries; values can stand above or below the binder they belong to.

Assays:
[1] = molecular target: T1, recombinant Factor VIIa (rFVIIa); assay: BLI; Octet Red, Ni-NTA biosensors, 37 °C, 1000 rpm; association 180 sec, dissociation 10 min; 1:1 model, global fit; the legend of Figure 4b says rFVIIa was immobilised; conditions: both partners purified
T1 construct: rFVIIa (NovoSeven RT); no His tag on rFVIIa is stated anywhere; also called NovoSeven RT; source: bought: NovoSeven RT (named for the ELISA)

[2] = molecular target: the molecule itself; assay: SEC; analytical SE-HPLC, TSK G3000SWXL, 0.1 M phosphate pH 7.8, 0.2 M NaCl, 1 mg/mL, 0.8 mL/min, 25 °C; calibrated with BioRad standards
[3] = molecular target: T1, recombinant Factor VIIa (rFVIIa); assay: cell-based or functional assay

T1 sequence (P08709 whole entry): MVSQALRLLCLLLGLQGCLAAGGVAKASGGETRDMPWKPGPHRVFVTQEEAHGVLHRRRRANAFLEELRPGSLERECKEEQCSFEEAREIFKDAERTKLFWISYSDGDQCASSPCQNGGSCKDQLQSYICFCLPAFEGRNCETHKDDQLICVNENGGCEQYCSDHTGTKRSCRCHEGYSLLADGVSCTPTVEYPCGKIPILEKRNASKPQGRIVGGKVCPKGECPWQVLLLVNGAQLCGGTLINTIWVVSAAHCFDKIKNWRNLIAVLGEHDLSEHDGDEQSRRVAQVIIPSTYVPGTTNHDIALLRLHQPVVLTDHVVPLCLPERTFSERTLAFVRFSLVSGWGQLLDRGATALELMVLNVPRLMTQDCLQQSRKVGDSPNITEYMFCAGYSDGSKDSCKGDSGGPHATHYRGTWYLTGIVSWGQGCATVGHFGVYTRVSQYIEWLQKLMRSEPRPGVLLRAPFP

- Kd [1]: 5.5 nM
B1: CE76-E5 (hCpn10 scaffold displaying the E-76 peptide with E5 linkers) (designed binder)
chain: AGQAFRKFLPLFDRVLVERSAAETVALCDDPRVDRWYCQFVEGEKSQGKVLQATVVAVGSGSKGKGGEIQPVSVKVGDKVLLPEYGGTKVVLDDKDYFLFRDGDILGKYVD
- stoichiometry N [2]: 7

- inhibition of FX activation by TF-FVIIa (chromogenic substrate S-2765), IC50 [3]: 1.5 nM
- inhibition of amidolytic activity of FVIIa (Chromozym t-PA) in the presence of TF, IC50 [3]: 6.8 nM
- inhibition of amidolytic activity of FVIIa (Chromozym t-PA) without TF, IC50 [3]: 8.4 nM
- prothrombin time (PT) in citrated human plasma, 0.001-100 μM, fold prolongation over normal clotting time [3]: 7 fold
- Kd [1]: 3 nM
B2: CE76-P1 (hCpn10 scaffold displaying the E-76 peptide with P1 linkers) (designed binder)
chain: AGQAFRKFLPLFDRVLVERSAAAPALCDDPRVDRWYCQFVEGAAPGKVLQATVVAVGSGSKGKGGEIQPVSVKVGDKVLLPEYGGTKVVLDDKDYFLFRDGDILGKYVD
- stoichiometry N [2]: 7
